According to patent publication US20230265198A1 (TWIST BIOSCIENCE, published 2023):
Residue numbers refer to the chain shown, from its start. Blank lines part the entries; values can stand above or below the binder they belong to.

Target: T1, neuropilin-1 (NRP1) on HEK293 cells overexpressing NRP1 (UniProt O14786 22-923, limits assumed)
T1 construct: whole, on cells
Assay: flow cytometry, HEK293-NRP1 vs HEK293

B1: NRP1-284 (antibody, IgG2, V domains shown)
VH: EVQLLESGGGLVQPGGSLRLSCAASGFTFSSSAMNWVRQAPGKGLEWVSAITSSGGSTYYADSVKGRFTISRDNSKNTLYLQMNSLRAEDTAVYYCARVTKMSPRSVGRRLRKGDGLDVWGQGTLVTVSS
VL: DIQMTQSPSSLSASVGDRVTITCRASQSISRSLSWYQQKPGKAPKLLIYSASRLQSGVPSRFSGSGSGTDFTLTISSLQPEDFATYYCLQSYSSPRTFGGGTKVEIK
100 nM FACS (MFI Ratio): 1

B4: NRP1-286 (antibody, IgG2, V domains shown)
VH: EVQLLESGGGLVQPGGSLRLSCAASGFTLSAYAMNWVRQAPGKGLEWVSSISGSGGATYYADSVKGRFTISRDNSKNTLYLQMNSLRAEDTAVYYCARVMKTTRRIVGRRLRKGDGLDVWGQGTLVTVSS
VL: B1 VL with S30R, R31N, S32N, S50A, R53S, S56T, L89Q, Y92F, S93T, S94I
100 nM FACS (MFI Ratio): 1.4

B5: NRP1-281 (antibody, IgG2, V domains shown)
VH: EVQLLESGGGLVQPGGSLRLSCAASGFTFRSLAVSWVRQAPGKGLEWVSTITGSGGATYYADSVKGRFTISRDNSKNTLYLQMNSLRAEDTAVYYCVRALAGRRDHWGQGTLVTVSS
VL: DIQMTQSPSSLSASVGDRVTITCRASQSIRTSLNWYQQKPGKAPKLLIYAASALHSGVPSRFSGSGSGTDFTLTISSLQPEDFATYYCQQSYSTLPITFGGGTKVEIK
100 nM FACS (MFI Ratio): 1.4

B6: NRP1-285 (antibody, IgG2, V domains shown)
VH: EVQLLESGGGLVQPGGSLRLSCAASGFTLSNYGMSWVRQAPGKGLEWVSTISGSGSGTYYADSVKGRFTISRDNSKNTLYLQMNSLRAEDTAVYYCARAGKAFDYWGQGTLVTVSS
VL: DIQMTQSPSSLSASVGDRVTITCRASQSVSSYLSWYQQKPGKAPKLLIYAATSLESGVPSRFSGSGSGTDFTLTISSLQPEDFATYYCQQSYRTPLTFGGGTKVEIK
100 nM FACS (MFI Ratio): 1.3

Now from value to binder:

100 nM FACS (MFI Ratio): 3.9
B2: NRP1-288 (antibody, IgG2, V domains shown)
VH: EVQLLESGGGLVQPGGSLRLSCAASGFTFSTFAMSWVRQAPGKGLEWVSTISGSGTSTYYADSVKGRFTISRDNSKNTLYLQMNSLRAEDTAVYYCARFPGDRGYYHYYMDVWGQGTLVTVSS
VL: B1 VL with S30A, S32Y, S34N, S50R, T72A, L89Q, Y92F, S94P, R96F

100 nM FACS (MFI Ratio): 0.6
B3: NRP1-290 (antibody, IgG2, V domains shown)
VH: EVQLLESGGGLVQPGGSLRLSCAASGFTFRNYAMTWVRQAPGKGLEWVSGISGSGGSTYYSDSVKGRFTISRDNSKNTLYLQMNSLRAEDTAVYYCARGRRGMPTPDTVRKMSKSHLYFDSWGQGTLVTVSS
VL: B1 VL with A25T, S32Y, S34N, S50G, R53T, L89Q, S91N, S93I, S94I, R96W

100 nM FACS (MFI Ratio): 0.4
B7: NRP1-287 (antibody, IgG2, V domains shown)
VH: EVQLLESGGGLVQPGGSLRLYCAASGFTFGSYGMSWVRQAPGKGLEWVSSISGSGGSTYYTDSVKGRFTISRDNSKNTLYLQMNSLRAEDTAVYYCARDLARGTMPRGVIIPHNWFDPWGQGTLVTVSS
VL: B6 VL with S28T, V29I, S31N, L33V, S34N, T52S, E55H, S56A, S91G, R93S

100 nM FACS (MFI Ratio): 0.9
B8: NRP1-289 (antibody, IgG2, V domains shown)
VH: EVQLLESGGGLVQPGGSLRLSCAASGFTISSSAMGWVRQAPGKGLEWVSALSGSGGSKYYADSVKGRFTISRDNSKNTLYLQMNSLRAEDTAVYYCAKEALPRASRRAAAVRYFHHWGQGTLVTVSS
VL: DIQMTQSPSSLSASVGDRVTITCRASQNIVRYLNWYQQKPGKAPKLLIYTASNLQTGVPSRFSGSGSGTDFTLTISSLQPEDFATYYCQESYSRTFGGGTKVEIK
